pKd: −log10 of the molar value.
Key:
HLA-A*32:01 = experiment: IEDB peptide-MHC binding, purified MHC/competitive/radioactivity; filed as Kd, often an IC50 or EC50 that approximates it; ≥ and ≤ were set here for values at or beyond the usual limits of such assays
HLA-B*51:01 [1] = experiment: as above; conditions: source organism: Dengue virus 4 Philippines/H241/1956
HLA-B*35:01 = experiment: as above
HLA-B*51:01 [2] = experiment: IEDB peptide-MHC binding, purified MHC/competitive/fluorescence; filed as Kd, often an IC50 or EC50 that approximates it; ≥ and ≤ were set here for values at or beyond the usual limits of such assays; conditions: source organism: Listeria monocytogenes 10403S
HLA-A*02:02 = experiment: IEDB peptide-MHC binding, purified MHC/competitive/radioactivity; filed as Kd, often an IC50 or EC50 that approximates it; ≥ and ≤ were set here for values at or beyond the usual limits of such assays
HLA-A*30:01 = experiment: as above
HLA-A*02:03 = experiment: as above
HLA-A*02:06 = experiment: as above
HLA-B*08:01 = experiment: as above
HLA-B*53:01 = experiment: as above
HLA-B*15:01 = experiment: as above; conditions: source organism: Vaccinia virus WR
HLA-B*18:01 = experiment: IEDB peptide-MHC binding, purified MHC/direct/fluorescence; filed as Kd, often an IC50 or EC50 that approximates it; ≥ and ≤ were set here for values at or beyond the usual limits of such assays
HLA-A*68:02 = experiment: IEDB peptide-MHC binding, purified MHC/competitive/radioactivity; filed as Kd, often an IC50 or EC50 that approximates it; ≥ and ≤ were set here for values at or beyond the usual limits of such assays
HLA-A*02:01 = experiment: IEDB peptide-MHC binding, purified MHC/competitive/fluorescence; filed as Kd, often an IC50 or EC50 that approximates it; ≥ and ≤ were set here for values at or beyond the usual limits of such assays; conditions: source organism: Variola virus
HLA-B*40:01 = experiment: IEDB peptide-MHC binding, purified MHC/direct/fluorescence; filed as Kd, often an IC50 or EC50 that approximates it; ≥ and ≤ were set here for values at or beyond the usual limits of such assays; conditions: source organism: Entamoeba histolytica HM-1:IMSS
[3] = source organism: Dengue virus 3 Martinique/1243/1999
[4] = source organism: Dengue virus 4 Philippines/H241/1956
[5] = source organism: Vaccinia virus WR
[6] = source organism: Dengue virus 1 Singapore/S275/1990
[7] = source organism: Dengue virus 3 Singapore/8120/1995
[8] = source organism: Dengue virus 2 Jamaica/1409/1983
[9] = source organism: Lassa virus GA391
[10] = source organism: Dengue virus 1 Brazil/97-11/1997
[11] = source organism: Lassa virus Josiah

LLVWHTWQKQ showed a pKd (HLA-A*32:01; [3]) of at most 4.63.

With LPVYLMTLMK the pKd (HLA-B*51:01 [1]) was 5.15 and the pKd (HLA-B*35:01; [4]) was 6.48.

LSYEPDNIV showed a pKd (HLA-B*51:01 [2]) of at most 4.70.

LTLDIFYLF was tested, and the pKd (HLA-A*32:01; [5]) was 8.36.

Work on LVKESMASL yielded a pKd (HLA-A*02:02; [5]) of 5.95, a pKd (HLA-A*30:01; [5]) of 7.02 and a pKd (HLA-A*02:03; [5]) of 8.02. It also gave a pKd (HLA-A*02:06; [5]) of 6.87.

For MAMVLSIVSL, the pKd (HLA-B*08:01; [6]) was 6.08.

With MILFLKLLI the pKd (HLA-A*32:01; [5]) was 6.15.

Work on MPGIFQTTTG yielded a pKd (HLA-B*35:01; [7]) of 5.93 and a pKd (HLA-B*53:01; [7]) of 6.26.

MRFKKESSL gave a pKd (HLA-B*08:01; [5]) of 8.47.

Work on MRGAKRMAI yielded a pKd (HLA-B*08:01; [8]) of 8.61.

MSIMPVLAY was tested, and the pKd (HLA-B*15:01) was 8.86 and the pKd (HLA-A*32:01; [5]) was 7.00.

MSKIKHKIF was tested, and the pKd (HLA-B*08:01; [5]) was 9.07.

MSRKFMQVY showed a pKd (HLA-A*30:01; [5]) of 8.84.

NEAKVLELL gave a pKd (HLA-B*18:01; source organism: West Nile virus) of 7.42.

With NISGYNFSL the pKd (HLA-A*02:02; [9]) was 7.14, the pKd (HLA-A*02:03; [9]) was 5.68 and the pKd (HLA-A*02:06; [9]) was 6.83. It also gave a pKd (HLA-A*68:02; [9]) of 6.75.

For NMHLKRSVF, the pKd (HLA-B*08:01; [5]) was 6.83.

Work on NSKSRICVI yielded a pKd (HLA-B*08:01; [5]) of 7.95 and a pKd (HLA-B*15:01) of 5.85.

QLNMEKREV gave a pKd (HLA-A*02:01) of 6.85.

QVLMMRTTW showed a pKd (HLA-A*32:01; [8]) of 7.13.

For RERGLALHV, the pKd (HLA-B*18:01; source organism: Salmonella enterica subsp. enterica serovar Typhimurium str. LT2) was 5.35.

REVEEIIKY gave a pKd (HLA-B*40:01) of 7.03 and a pKd (HLA-B*18:01; source organism: Entamoeba histolytica HM-1:IMSS) of 7.60.

For RLIVLFEVF, the pKd (HLA-B*15:01) was 8.16 and the pKd (HLA-A*32:01; [5]) was 7.90.

RMRFKKGAV gave a pKd (HLA-B*08:01; [5]) of 8.27.

RSTSLSVSLV was tested, and the pKd (HLA-A*68:02; [8]) was 6.60.

Sequence RTATLILAGV has a pKd (HLA-A*02:03; [3]) of 8.19, a pKd (HLA-A*02:06; [3]) of 8.28 and a pKd (HLA-A*68:02; [3]) of 9.59.

RTRGPLGIL showed a pKd (HLA-A*30:01; [5]) of 10.06.

With RVHDTNATK the pKd (HLA-A*30:01; [5]) was 8.12.

Work on RVKQISIST yielded a pKd (HLA-A*30:01; source organism: Vaccinia virus Copenhagen) of 9.43.

With SAVPVHWVPT the pKd (HLA-A*32:01; [3]) was 5.70.

SGMVFTSPV was tested, and the pKd (HLA-B*08:01; [5]) was 7.11.

SKGWKNWQEV showed a pKd (HLA-A*32:01; [4]) of 4.70.

Work on SKGWNDWQQV yielded a pKd (HLA-A*32:01; [10]) of at most 4.25.

In the case of SPYYRNSVA, the pKd (HLA-B*08:01; [5]) was 6.95.

For SRFKKVYIL, the pKd (HLA-B*08:01; [5]) was 7.12.

Sequence SVNMISRMLI has a pKd (HLA-A*68:02; [8]) of 6.63.

Work on TTANISLTAI yielded a pKd (HLA-A*68:02; [10]) of 9.10.

In the case of VAATMANEM, the pKd (HLA-B*35:01; [8]) was 6.24.

VLIALSVLAV showed a pKd (HLA-A*02:02; [11]) of 6.79, a pKd (HLA-A*02:03; [11]) of 7.91 and a pKd (HLA-A*02:06; [11]) of 6.89. The pKd (HLA-A*68:02; [11]) was 5.43.

For WAFCEVLTL, the pKd (HLA-B*35:01; [4]) was 6.24.

Sequence WAKNIHTAI has a pKd (HLA-B*08:01; [4]) of 7.63.

Sequence WATLLSLTF has a pKd (HLA-B*35:01; [6]) of 6.90 and a pKd (HLA-B*53:01; [6]) of 8.39.

In the case of WNTGFDWITD, the pKd (HLA-A*32:01; [4]) was 5.94.

For WTAGADTSEV, the pKd (HLA-A*68:02; source organism: Dengue virus 4 Dominica/814669/1981) was 7.54.

In the case of YRGAKRMAIL, the pKd (HLA-B*08:01; [4]) was 6.89.

Work on YRKYHVPIM yielded a pKd (HLA-B*08:01; [5]) of 7.21.

Sequence YSAPFESEGV has a pKd (HLA-A*68:02; [4]) of 8.60.
